Measured values: the supplement of paper PMC9170038

What was measured:
MS2 coat protein [1] = experiment: apparent KD of MS2 coat protein, switch ON state; designed switch direction (-1 OFF switch, 1 ON switch): -1; higher = weaker reporter binding; conditions: FMN input: 0 or 200 uM; Eterna round: R93 (includes R88 designs)
Method in brief: (§1)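 The buffer was 100 mM Tris-HCl pH 7.5 with 80 mM KCl and 4 mM MgCl2, used without or with constant ligand. In it, RNA switches transcribed on-chip from Illumina sequencing clusters were titrated with SNAP-549-labelled MS2 coat protein in twofold steps from 0.7 or 1.5 nM to 3 µM. Apparent KD for each design is the median of its normalised cluster binding-curve fits.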

MS2 coat protein [2] = experiment: apparent KD of MS2 coat protein, switch OFF state (with FMN for OFF switches, without FMN for ON switches); designed switch direction (-1 OFF switch, 1 ON switch): -1; higher = weaker reporter binding; conditions: FMN input: 0 or 200 uM; Eterna round: R93 (includes R88 designs)
Method in brief: as §1

MS2 coat protein [3] = experiment: apparent KD of MS2 coat protein; designed switch direction (-1 OFF switch, 1 ON switch): 1; higher = weaker reporter binding
Method in brief: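 An oligonucleotide input, 200 uM small-molecule ligand, or no input was present during titration of SNAP-549-labelled MS2 coat protein, which was doubled from 0.7 or 1.5 nM to 3 µM. Designed RNA switches had been transcribed on Illumina chips by stalled E. coli RNA polymerase. Apparent KD per design is the median over clusters of curves fitted to normalised cluster fluorescence.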

[4] = input ligand: microRNA oligo, concentration not stated

Row | Sequence | apparent KD of MS2 coat protein (MS2 coat protein [1]) | apparent KD of MS2 coat protein (MS2 coat protein [2]) | also measured
1 | AAAAAAAGAGGAUAUACGAACAUGUCAAAAGACGUGAAGGGACAUGAGGAUCACCCAUGUAGAAGGCUUAAAAA [JL Part Open 28] | 38.7 nM | 26.3 nM | 
2 | AAAAAACAUGAGGAUCACCCAUGUAAGGAUAUGCAAAAUAAAAGAAAUAAAAAGAAAAGCAGAAGGUACAUUAA [JL wbt mod 9] | 23.6 nM | 37.9 nM | 
3 | AAAAAACAUGAGGAUCACCCAUGUGAGGAUAUACAAAGAAAGACAGGCAAGUAAAGAGGUAGAAGGCGCAAAAA [Default title] | 15.4 nM | 18.2 nM | 
4 | AAAAAACAUGAGGAUCACCCAUGUGAGGAUAUCCUAAAGGGAAUAAAAUAACUCAAAAGGAGAAGGCGCAAAAA [Ex 1 May 31] | 60.2 nM | 46.3 nM | 
5 | AAAAAACAUGAGGAUCACCCAUGUGAGGAUAUCGCUAGUCAGUCAUCAGAGUGAGUGAUGAGAAGGCACAUAAA [Brourd 613 Mod 6 - Jieux - Exclusion 1] | 26.3 nM | 31.9 nM | 
6 | AAAAAACAUGAGGAUCACCCAUGUGAGGAUAUCGCUAGUCAGUCCCUAGAGUGAGUGAUGAGAAGGCACAUAAA [Brourd 613 Mod 7 - Jieux - Exclusion 1] | 40.9 nM | 49.6 nM | 
7 | AAAAAACAUGAGGAUCACCCAUGUGAGGAUAUCGGAAAAGGAAAAAAAAAAAAGAAGACGAGAAGGCACAAAGA | 26.6 nM | 28.6 nM | 
8 | AAAAAACAUGAGGAUCACCCAUGUGAGGAUAUCGGAAAAGGAAAAAUAAAAAAGAAGACGAGAAGGCACACCAA [Mat - Exclusion 1 - Eli mod - D74] | 20.9 nM | 24.6 nM | 
9 | AAAAAACAUGAGGAUCACCCAUGUGAGGAUAUCGGUAGUGAGGCUAUAGUGUCAAUAGUGAGAAGGCACAUAAA [Brourd 613 Mod 12 - Jieux - Exclusion 1] | 31.1 nM | 29.2 nM | 
10 | AAAAAACAUGAGGAUCACCCAUGUGAGGAUAUCGUAAACAAAAAAAACAAAAACAAAUCGAGAAGGCACAAAAA [Amethyst 34] | 21 nM | 35.1 nM | 
11 | AAAAAACAUGAGGAUCACCCAUGUGAGGAUAUCUGAAAAAAAAAAAAAAAAAAGAAAAAGAGAAGGCGCAAAGA [Ex 1 #2] | 38 nM | 35.1 nM | 
12 | AAAAAACAUGAGGAUCACCCAUGUGAGGAUAUGAACGAAAAUAAAUAAAAAUAAAAGUUCAGAAGGUACGAAAA [66%, Wbt, 3] | 25.2 nM | 30.7 nM | 
13 | AAAAAACAUGAGGAUCACCCAUGUGAGGAUAUGACGUAAAUAAAGAAAGAAGAAAUCGUCAGAAGGCACAAAAA [55%, Disencluded 2, 6] | 42.3 nM | 41 nM | 
14 | AAAAAACAUGAGGAUCACCCAUGUGAGGAUAUGACGUAAAUAAAGAAAGAAGAAAUCGUCAGAAGGCACACCAA [55%, Disencluded 2, 5] | 29.8 nM | 43.1 nM | 
15 | AAAAAACAUGAGGAUCACCCAUGUGAGGAUAUGAUGCGAAUAAAGAAAGAAGAAAGCAUCAGAAGGCACACCAA [58%, Disencluded 3, 1] | 29.4 nM | 52 nM | 
16 | AAAAAACAUGAGGAUCACCCAUGUGAGGAUAUGCAAAAAAAAAAAAAAAAAAAAAAAAGCAGAAGGCGCAAAAA [4 GC Strong] | 20.6 nM | 38.9 nM | 

Row | Sequence | apparent KD of MS2 coat protein (MS2 coat protein [1]) | apparent KD of MS2 coat protein (MS2 coat protein [2]) | also measured
17 | AAAAAACAUGAGGAUCACCCAUGUGAGGAUAUGCAAAACCCAUAUAAAAAGGGAAAAAGCAGAAGGCACAAAAA [Starry Exclusion 1.3 (wbt round 1 mod)] | 22.8 nM | 55.8 nM | 
18 | AAAAAACAUGAGGAUCACCCAUGUGAGGAUAUGCAAAAGAAAAGAAAAGAAAGAAGAAGCAGAAGGCACAAGAA [Djedefra] | 29.4 nM | 36.8 nM | 
19 | AAAAAACAUGAGGAUCACCCAUGUGAGGAUAUGCGAAAAUAAAAUAAAAUAAAUAAAAGCAGAAGGCACAAAAA [Mat - Exclusion 1 - Eli mod - D59] | 41.1 nM | 43.9 nM | 
20 | AAAAAACAUGAGGAUCACCCAUGUGAGGAUAUGUAAAAUAAAAUAAAAAUAAAGAAAAGCAGAAGGUAUAUGAA [Amethyst 65] | 20.4 nM | 23.2 nM | 
21 | AAAAAAGGAGGAUAUACGUACAUGUCAAAAGACGUGAAGGGACAUGAGGAUCACCCAUGUAGAAGGUCUAAAAA [JL Part Open 36] | 34.5 nM | 17.9 nM | 
22 | AAAAAAGGAGGAUAUACGUACAUGUCGAAAGACGUGAAGGGACAUGAGGAUCACCCAUGUAGAAGGCCUAAAAA [Mat - Exclusion 2 - JL mod - D86] | 34.8 nM | 107 nM | 
23 | AAAAACCUAGGAUAUACAUGAGGAUCACCCAUGUAAAGAAACAAAAAGGGAAAAACAAGUAGAAGGAGGAAGAA [JR_Exc003_Sub1202] | 16.3 nM | 18.2 nM | 
24 | AAAAAGAUAGGAUAUACGUACAUGUCAAAAGACGUGAAGGGACAUGAGGAUCACCCAUGUAGAAGGAUUAAAAA [JL Wide Open 40] | 31.6 nM | 20.1 nM | 
25 | AAAAAGGCAGGAUAUACGAAACUAAGACAAAUAAGAAAGGGACAUGAGGAUCACCCAUGUAGAAGGGCCAAAAA [Exclusion 2-01... 60% 4] | 49.1 nM | 70.1 nM | 
26 | AAAAAGGGAGGAUAUACAUGAGGAUCACCCAUGUAAAAAAAAAAAGGAGGGAGGGAAGGUAGAAGGCCCAAAAA [Excls3-IIi] | 17.7 nM | 24.6 nM | 
27 | AAAAAGGGAGGAUAUACAUGAGGAUCACCCAUGUAAAAAAAAACAAAAAAAAAAAAAAGUAGAAGGCCCAAAAA [here you go] | 52.3 nM | 37.5 nM | 
28 | AGAACGUCAGGAUAUCCAACAACAAGUAAAUAGAGAAGAAGGGAGAAGGGACAUGAGGAUCACCCAUGUAAGAA [e4-2] |  | 29.9 nM | 
29 | UUUCGAUAGAUAGGAUAUCACUUUACAUGAGGAUCACCCAUGUUGGCUGUGCUGAUUAUUAAAACUGAGAAGGAUCUUGAUGAC [JR_SSNG2_Sub003] (Eterna round: R96, puzzle: Same State NG 2) |  |  | apparent KD of MS2 coat protein (MS2 coat protein [3]; input ligand: FMN 200 uM): 25.2 nM; apparent KD of MS2 coat protein (MS2 coat protein [3]; [4]): 22 nM; apparent KD of MS2 coat protein (MS2 coat protein [3]; input ligand: none): 23.5 nM
30 | UUUGAAUUGCAAGGAUAUCUUAUUUAGAUUUUAAGAGAAGGUGCUUUACAGUUACAUGAGGAUCACCCAUGUCUUUCUUUUUAU [JR_SSNG1_Sub063] (Eterna round: R96, puzzle: Same State NG 1) |  |  | apparent KD of MS2 coat protein (MS2 coat protein [3]; [4]): 19.3 nM
31 | UUUUUUAUCGUAGGAUAUAGGUUGAAUAAUAGACUAGAAGGACGUCACAUGAGGAUCACCCAUGUUUUUUAAGUGUCGAAGUGU [JR_SSNG1_Sub040] (Eterna round: R96, puzzle: Same State NG 1) |  |  | apparent KD of MS2 coat protein (MS2 coat protein [3]; input ligand: FMN 200 uM): 31.3 nM; apparent KD of MS2 coat protein (MS2 coat protein [3]; [4]): 23 nM; apparent KD of MS2 coat protein (MS2 coat protein [3]; input ligand: none): 29.4 nM
32 | UUUUUUUUGACGAGACAAGCUUUUUGAUCACAUGAGGAUCACCCAUGUCUCGUCUUAUUUUUUUUUUUUUUUUUUUU [BA Sensor hsa-mir-208a - 2 - 2] (puzzle: Sensor for hsa-mir-208a) |  |  | apparent KD of MS2 coat protein (MS2 coat protein [3]; Eterna round: R95, input ligand: FMN 200 uM): 17.4 nM; apparent KD of MS2 coat protein (MS2 coat protein [3]; Eterna round: R95, input ligand: microRNA oligo, concentration not stated): 9.64 nM; apparent KD of MS2 coat protein (MS2 coat protein [3]; Eterna round: R95, input ligand: none): 7.54 nM
